T1: human PACAP38 (human, not fully specified; C-terminal lysine is amidated; N-terminal or C-terminal biotin in the HTRF and PC-12 cell binding assays)
T1 construct: synthetic peptide, bought; also called huPACAP (1-38)
T1 peptide: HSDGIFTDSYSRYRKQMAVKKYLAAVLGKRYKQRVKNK

T2: human PACAP27 (human, C-terminal leucine is amidated; 125I-labelled in Example 10)
T2 peptide: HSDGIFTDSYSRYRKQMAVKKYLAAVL

T3: human VIP (human)
T3 construct: also called Vasoactive Intestinal Peptide
T3 peptide: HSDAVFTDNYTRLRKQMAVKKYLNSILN


How the values were obtained:
human PACAP38 [1] = target: T1, human PACAP38; test: SPR, Ab immobilised
Description: (§1) Binding affinities of monoclonal antibodies for human PACAP were estimated using SPR on the PROTEON™ XPR36 (Bio-Rad, Hercules, Calif.). Antibody was immobilized to the surface of general amine coupling (“GLC” or “GLM”) Chips (Bio-Rad, Hercules, Calif.). A dilution series of human PACAP38 (SEQ ID NO: 1241) prepared in 1×PBST Buffer (4.3 mM Na Phosphate, 1.4 mM K Phosphate, 135 mM NaCl, 2.7 mM KCl 0.05% Polysorbate-20) purchased from Teknova (Cat# P1192, Teknova, Hollister, Calif.) and supplemented with 0.25 M arginine (from J.T. BAKER®), 0.2 mg/ml BSA (Jackson Immuno Research Labs, West Grove, Pa.), and 0.005% sodium azide (VWR International, Radnor, Pa.) with the pH adjusted to 7 was used to query the antibodies. Antigen (ranging from 1.23 nM to 100 nM) was typically run sequentially with association times of 2-4 minutes and dissociation times of 3-120 minutes grouped with the PROTEON™ Manager Software (v3.1.0.6 (Bio-Rad, Hercules, Calif.)) and fitted using a 1:1 Langmuir binding model. Surfaces were regenerated between analyte queries using 0.85% Phosphoric Acid.

human PACAP27 [2] = target: T2, human PACAP27; test: SPR, Ab immobilised
Description: [The procedure below names another target; the source says it served here with some conditions changed.] as §1

human VIP = target: T3, human VIP; test: SPR, Ab immobilised
Description: [The procedure below names another target; the source says it served here with some conditions changed.] as §1

human PACAP38 [3] = target: T1, human PACAP38; test: cell-based or functional assay
human PACAP27 [4] = target: T2, human PACAP27; test: cell-based or functional assay
human PACAP38 [5] = target: T1, human PACAP38; test: cell-based or functional assay
human PACAP38 [6] = target: T1, human PACAP38; test: cell-based or functional assay
human PACAP38 [7] = target: T1, human PACAP38; test: HTRF binding, biotin-PACAP38
Description: In parallel, 10 μl of an antibody dilution series (highest final concentration of 100 nM) were incubated with 10 μl of N-terminal or C-terminal biotinylated PACAP38 (35 nM final) alone, or in combination with either PACAP27 (350 nM final) or VIP (350 nM final), i.e., 10× PACAP27 or 10×VIP, respectively, in a HTRF plate. 20 μl of Eu³⁺ cryptate labeled anti-hu Fc donor and 20 μl of d2-labeled streptavidin acceptor were added to each well and incubated for 1 hour at room temperature. Fluorescence was measured at 620 and 665 nm with a delay of 300 μsec.
EC₅₀ values, i.e. the concentration of an antibody that yields a response halfway between the baseline and the maximum value within a specified time period, were computed for each antibody based upon their binding curves and are shown in Table 1 below. […] A humanized form of antibody Ab1 was produced and is identified by an appended “.H”, i.e., Ab1.H, and it also bound PACAP38 with high affinity.

human PACAP38 [8] = target: T1, human PACAP38; test: inhibition of 100 nM biotin-PACAP38 binding to PC-12 cells, TRF
Description: To identify antibodies that block PACAP38 binding to PAC1-R-expressing cells, adherent PC-12 cells (ATCC, Manassas, Va.) expressing PAC1-R were used in a Europium-based PAC1-R expressing cells binding assay.
Antibody solutions were incubated with N-terminal biotinylated PACAP38 at 10× the final concentration (100 nM or 30 nM) for 1 hr, then added to PC-12 cells that were plated 24 hrs. prior in black clear bottom 96 well plates (COSTAR™, Corning Incorporated, Corning, N.Y.) and further incubated for 1 hr at room temperature. After three washes, the cells were incubated with 20 μl Europium-labeled streptavidin (PerkinElmer, Waltham, Mass.) for 1 hr at room temperature. Cells were washed three times, then 20 μl DELFIA® Enhancement solution (PerkinElmer, Waltham, Mass.) was added to each well and incubated for 15 minutes with gentle shaking. Plates were read (Time Resolved Fluorescence (“TRF”)) on SPECTRAMAX® (Molecular Devices, Sunnyvale, Calif.) plate reader.
FIGS. 14A-14BB are representative of the inhibition curves obtained by this method (results are shown for Ab1, Ab2, Ab3, Ab4, Ab5, Ab6, Ab7, Ab8, Ab9, Ab10, Ab11, Ab12, Ab13, Ab14, Ab15, Ab16, Ab17, Ab18, Ab19, Ab1.H, Ab10.H, Ab22, Ab23, Ab3.H, Ab4.H, Ab5.H, Ab9.H, and Ab12.H, respectively) wherein the PAC1-R expressing cells were PC-12 cells.

| Binder | Kd (human PACAP38 [1]) [nM] | koff (human PACAP38 [1]) [s⁻¹] | kon (human PACAP38 [1]) [M⁻¹ s⁻¹] | Kd (human PACAP27 [2]) [nM] | koff (human PACAP27 [2]) [s⁻¹] | kon (human PACAP27 [2]) [M⁻¹ s⁻¹] | Kd (human VIP) [µM] | koff (human VIP) [s⁻¹] | kon (human VIP) [M⁻¹ s⁻¹] | IC50, 0.1 nM PACAP38-induced PAC1-R mediated cAMP increase (human PACAP38 [3]) [pM] | IC50, 0.1 nM PACAP27-induced PAC1-R mediated cAMP increase (human PACAP27 [4]) [pM] | IC50, 5 nM PACAP38-induced human VPAC1-R mediated cAMP increase (human PACAP38 [5]) [pM] | IC50, 1 nM PACAP38-induced human VPAC2-R mediated cAMP increase (human PACAP38 [6]) [pM] | EC50 (human PACAP38 [7]) [nM] | IC50 (human PACAP38 [8]) [nM] |
| --- | --- | --- | --- | --- | --- | --- | --- | --- | --- | --- | --- | --- | --- | --- | --- |
| anti-PACAP antibody Ab6 (antibody, human IgG1, kappa, N297A, V domains shown, full-length rabbit/human chimeric antibody) VH: LEQSGGGAEGGLVKPGGSLELCCKASGFSLSSTYWMCWVRQAPGKGLEWIGCIYTGSGSTDYASWVNGQFTLSRDIDQSTGCLQLNSLTVADTAMYYCTKNFDLWGPGTLVTVSS VL: AQVLTQTPSSVSAAVGGTVTINCQSSPSVYSNNYLSWFQQKPGQPPKGLIADASTLASGVPSRFKGSGSGTQFTLTISGVQCDDAAAYYCLGYYDCGSTDCHAFGGGTEVVVKR | 0.14 | 4.1e-05 | 300000 | 0.21 | 8.2e-05 | 390000 | 0.044 | 0.00014 | 3100 | 51.2 | 380 | 797 | 217 | 0.5 | 7.8 |
| anti-PACAP antibody Ab4 (antibody, human IgG1, kappa, N297A, V domains shown, full-length rabbit/human chimeric antibody) VH: QSVEESGGRLVTPGTPLTLTCTVSGFSLSSYDMSWVRQAPGKGLEYIGIINTNDDTWYASWVKGRFTISKTSSTTVDLKMTSLTTEDTATYFCARISDAYVFDYAYYFTLWGQGTLVTVSS VL: ALVMTQTPSSVSAAVGGTVTINCLASQNIYNSLAWYQQKPGQPPKLLIYRASTLASGVSSRFKGSGSGTQFTLTISGVECADAATYYCQQGAGADNIGNPFGGGTEVVVKR | 0.22 | 7.2e-05 | 330000 | 0.51 | 0.0002 | 390000 | 0.12 | 0.021 | 170000 | 340 | 76.9 | 943 | 218 | 0.66 | 28.6 |
| anti-PACAP antibody Ab8 (antibody, human IgG1, kappa, N297A, V domains shown, full-length rabbit/human chimeric antibody) VH: LEQSGGGAEGGLVKPGGSLELCCKASGFSLTTSHWMCWVRQAPGKGLNWIGCISAGSGDADYATWVDAQFTLSRDIDQNTGCLQLNSLTPADTAMYYCTINFELWGQGTLVTVSS VL: AQVLTQTPSSVSAAVGGTVTINCQSSPSVYSSYLSWFQQKPGQPPKFLIYEASKLASGVPSRFSGSGSGTQFTLTISGVQCSDAATYYCLGAYDCGRTDCHAFGGGTEVVVKR | ≤ 0.029 | ≤ 1e-05 | 350000 | 0.14 | 6e-05 | 440000 | 0.21 | 0.1 | 480000 | 39.3 | 49 | 481 | 147 | 0.48 | 20.3 |
| anti-PACAP antibody Ab9 (antibody, human IgG1, kappa, N297A, V domains shown, full-length rabbit/human chimeric antibody) VH: EQSGGGAEGGLVKPGGSLKLSCKASGFTISRDYWICWVRQAPGKGLEWIGCISAGGGSTDYANWVNGRFTLSRDIDQSTGCLQLNSLTDADTAMYYCAGNLEIWGQGTLVTVSS VL: AQVLTQTPSSVSAAVGGTVTINCQSSPSIYSGAFLSWFQQKPGQPPKFLIYEASKLASGVPSRFSGSGSGTQFTLTISDVQCDDAATYYCLGFYDCSSVDCHAFGGGTEVVVKR | 0.14 | 0.00011 | 820000 | 0.34 | 0.00032 | 960000 | 100000 | 0.1 |  | 987 | 2840 | 4060 | 6960 | 0.23 | 33.3 |
| anti-PACAP antibody Ab5 (antibody, human IgG1, kappa, N297A, V domains shown, full-length rabbit/human chimeric antibody) VH: QSVEESGGRLVTPGTPLTLTCTVSGFSLSSYAMIWVRQAPGKGLEWIGIIYDNGDTYYASWAKGRFTISKTSTTVYLKIASPTTEDTATYFCAREPGSTTQNDLWGQGTLVTVSS VL: DVVMTQTPASVSEPVGGTVTIKCQASENIYNSLLWYQQKPGQPPKLLIYRASTLASGVSSRFKGSGSGTEFTLTISDLECADAATYYCQNYYNIWTNGAAFGGGTEVVVKR | ≤ 0.041 | ≤ 1e-05 | 240000 | 0.096 | 2.4e-05 | 250000 | 7.2 | 0.86 | 120000 | 327 | 353 | 721 | 239 | 0.6 | 16.3 |

Source: US20190233498A1 (H LUNDBECK A S, published 2019)
